Laboratory results published in the supplement of paper PMC7877785.
± gives the uncertainty stated by the source.

Assay: self-splicing fitness, log relative to wild type (ln ratio); higher = more splicing; Tetrahymena group I intron in knt gene, E. coli kanamycin selection, DiMSum; sequences stand for … in CUCUCU…GGAGGGAAAAGUUAUCAGGCAUGCACCUGGUAGCUAGUCUUUAAACCAAUAGAUUGCAUCGGUUUAAAAGGCAAGACCGUCAAAUUGCGGGAAAGGGGUCAACAGCCGUUCAGUACCAAGUCUCAGGGGAAACUUUGAGAUGGCCUUGCAAAGGGUAUGGUAAUAAGCUGACGGACAUGGUCCUAACCACGCAGCCAAGUCCUAAGUCAACAGAUCUUCUGUUGAUAUGGAUGCAGUUCACAGACUAAAUGUCGGUCGGGGAAGAUGUAUUCUUCUCAUAAGAUAUAGUCGGACCUCUCCUUAAUGGGAGCUAGCGGAUGAAGUGAUGCAACACUGGAGCCGCUGGGAACUAAUUUGUAUGCGAAAGUAUAUUGAUUAGUUUUGGAGUACUCGUGGUCG
Outline: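 Colonies from six replicate transformations of E. coli BL21(DE3) were pooled and amplicon-sequenced on an Illumina HiSeq 2500. The library placed an intron with all eight P1ex-region nucleotides randomised inside the knt kanamycin-resistance gene on pET-22b(+), and cells grew overnight at 37°C or 30°C on LB agar with or without 25 μg/mL kanamycin (plus 100 μg/mL carbenicillin, 50 μM IPTG, 0.2% rhamnose). Fitness is the DiMSum error-weighted combination of wild-type-normalised replicate fold changes, kanamycin versus none.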

Sequence	self-splicing fitness (ln) (30 °C)	self-splicing fitness (ln) (37 °C)
AAAAAGCAAUAUUACGAAAU	-1.91 ± 0.091	-1.01 ± 0.12
AAAAAGCAAUAUUACGAAUU	-1.3 ± 0.072	-1.13 ± 0.089
AAAAAGCAAUAUUACGAUGG	-2.81 ± 0.12	-0.923 ± 0.11
AAAAAGCAAUAUUACGCAAC	-2.16 ± 0.15	-1.99 ± 0.24
AAAAAGCAAUAUUACGCCAU	-2.87 ± 0.22	-1.71 ± 0.24
AAAAAGCAAUAUUACGCGCU	-0.379 ± 0.076	-0.358 ± 0.091
AAAAAGCAAUAUUACGCUGU	-2.69 ± 0.13	-1.69 ± 0.11
AAAAAGCAAUAUUACGGACU	-0.0499 ± 0.067	-0.0238 ± 0.083
AAAAAGCAAUAUUACGGAUG	-2.17 ± 0.094	-1.23 ± 0.095
AAAAAGCAAUAUUACGGCAG	-1.32 ± 0.074	-0.434 ± 0.095
AAAAAGCAAUAUUACGGCAU	0.0355 ± 0.061	0.55 ± 0.081
AAAAAGCAAUAUUACGGGUA	-1.61 ± 0.11	-0.435 ± 0.11
AAAAAGCAAUAUUACGGUCG	-0.302 ± 0.062	0.273 ± 0.083
AAAAAGCAAUAUUACGUAUU	-1.92 ± 0.077	-1.39 ± 0.11
AAAAAGCAAUAUUACGUUUA	-1.4 ± 0.1	-0.799 ± 0.091
AAACAGCAAUAUUACGAUGA	-1.34 ± 0.067	-0.0116 ± 0.067
AAACAGCAAUAUUACGCAGA	-2.53 ± 0.15	-1.42 ± 0.11
AAACAGCAAUAUUACGCGUC	-2.3 ± 0.095	-1.78 ± 0.12
AAACAGCAAUAUUACGGCCG	-1.69 ± 0.13	-0.732 ± 0.16
AAACAGCAAUAUUACGGUAG	-2.8 ± 0.12	-2.02 ± 0.12
AAACAGCAAUAUUACGUACA	-1.23 ± 0.073	-0.0501 ± 0.082
AAACAGCAAUAUUACGUAUC	-3.98 ± 0.17	-1.97 ± 0.12
AAACAGCAAUAUUACGUCAA	-2.45 ± 0.11	-1.44 ± 0.087
AAACAGCAAUAUUACGUCGA	-0.86 ± 0.065	-0.774 ± 0.073
AAACAGCAAUAUUACGUGAC	-3.5 ± 0.14	-2.29 ± 0.13
AAACAGCAAUAUUACGUGCC	-2 ± 0.1	-1.31 ± 0.13

Sequence	self-splicing fitness (ln) (30 °C)	self-splicing fitness (ln) (37 °C)
AAACAGCAAUAUUACGUGGG	-3.64 ± 0.13	-2.71 ± 0.11
AAACAGCAAUAUUACGUGUC	-4.08 ± 0.15	-2.78 ± 0.13
AAACAGCAAUAUUACGUUCC	-2.55 ± 0.16	-1.13 ± 0.19
AAACAGCAAUAUUACGUUGC	-3.24 ± 0.11	-3.26 ± 0.18
AAAGAGCAAUAUUACGAGAU	-3.95 ± 0.17	-3.28 ± 0.22
AAAGAGCAAUAUUACGAGCU	–	-2.09 ± 0.28
AAAGAGCAAUAUUACGAGUG	-3.95 ± 0.19	-2.38 ± 0.16
AAAGAGCAAUAUUACGAUAA	-3.45 ± 0.18	-2.2 ± 0.22
AAAGAGCAAUAUUACGAUCC	–	-1.6 ± 0.32
AAAGAGCAAUAUUACGCACU	-1.46 ± 0.12	-0.12 ± 0.15
AAAGAGCAAUAUUACGCAGC	–	-2.77 ± 0.41
AAAGAGCAAUAUUACGCCUA	-2.22 ± 0.21	-1.81 ± 0.25
AAAGAGCAAUAUUACGCGCA	-2.39 ± 0.17	-1.5 ± 0.12
AAAGAGCAAUAUUACGCGUC	-2.18 ± 0.2	-2.6 ± 0.21
AAAGAGCAAUAUUACGCGUU	-2.13 ± 0.14	-1.32 ± 0.14
AAAGAGCAAUAUUACGCUAC	–	-2.81 ± 0.32
AAAGAGCAAUAUUACGCUAG	-2.87 ± 0.17	-2.42 ± 0.27
AAAGAGCAAUAUUACGCUUG	-1.67 ± 0.13	-1.19 ± 0.18
AAAGAGCAAUAUUACGGCCC	-3.78 ± 0.37	-1.59 ± 0.34
AAAGAGCAAUAUUACGGCUG	-2.36 ± 0.1	-1.12 ± 0.12
AAAGAGCAAUAUUACGGGAG	-3.34 ± 0.21	-2.8 ± 0.27
AAAGAGCAAUAUUACGUAAA	-3.11 ± 0.15	-1.42 ± 0.13
AAAGAGCAAUAUUACGUCUA	-1.12 ± 0.093	-0.882 ± 0.093
AAAGAGCAAUAUUACGUGCC	-3.09 ± 0.21	-2.35 ± 0.22
AAAGAGCAAUAUUACGUUCA	-1.03 ± 0.094	-0.639 ± 0.097
AAAGAGCAAUAUUACGUUCG	-1.54 ± 0.11	-0.974 ± 0.15

Sequence	self-splicing fitness (ln) (30 °C)	self-splicing fitness (ln) (37 °C)
AAAGAGCAAUAUUACGUUUA	-1.71 ± 0.17	-1.12 ± 0.21
AAAUAGCAAUAUUACGAACG	-1.42 ± 0.14	-0.384 ± 0.16
AAAUAGCAAUAUUACGAAGU	-2.55 ± 0.18	-2.16 ± 0.2
AAAUAGCAAUAUUACGACAG	-2.02 ± 0.13	-1.34 ± 0.16
AAAUAGCAAUAUUACGAUAG	-3.17 ± 0.27	-2.49 ± 0.23
AAAUAGCAAUAUUACGAUGG	-2.87 ± 0.17	-1.97 ± 0.2
AAAUAGCAAUAUUACGAUUA	0.0855 ± 0.11	0.0228 ± 0.096
AAAUAGCAAUAUUACGAUUU	-0.479 ± 0.061	-0.0855 ± 0.081
AAAUAGCAAUAUUACGCAGC	-3.27 ± 0.33	-0.974 ± 0.25
AAAUAGCAAUAUUACGCUGA	-2.31 ± 0.16	-1.29 ± 0.18
AAAUAGCAAUAUUACGCUGC	-2.73 ± 0.2	-1.86 ± 0.41
AAAUAGCAAUAUUACGGUCA	-0.724 ± 0.069	0.0582 ± 0.071
AAAUAGCAAUAUUACGGUCG	-0.942 ± 0.065	-0.272 ± 0.095
AAAUAGCAAUAUUACGGUGU	-2.83 ± 0.13	-2.05 ± 0.15
AAAUAGCAAUAUUACGUAAG	-1.37 ± 0.078	-0.721 ± 0.096
AAAUAGCAAUAUUACGUAAU	-3.04 ± 0.12	-1.75 ± 0.12
AAAUAGCAAUAUUACGUGCU	-0.869 ± 0.11	-1.22 ± 0.15
AAAUAGCAAUAUUACGUUGU	-4.44 ± 0.29	-1.02 ± 0.12
AACAAGCAAUAUUACGAAUU	-1.9 ± 0.091	-0.666 ± 0.12
AACAAGCAAUAUUACGACAG	-2.25 ± 0.078	-1.76 ± 0.09
AACAAGCAAUAUUACGAGAA	-2.78 ± 0.32	-2.03 ± 0.21
AACAAGCAAUAUUACGAGAC	-1.88 ± 0.11	-2.67 ± 0.19
AACAAGCAAUAUUACGAGAU	-3.08 ± 0.14	-1.62 ± 0.12
AACAAGCAAUAUUACGAGGA	-1.76 ± 0.14	-2.42 ± 0.16
AACAAGCAAUAUUACGCAAC	-3.89 ± 0.22	-1.63 ± 0.12
